Reference: patent US20260015399A1 (Boehringer Ingelheim, published 2026)
*1 amine or outer side, *2 acyl side, *3 side chain or, on linkers, in order; H or OH if unused. Side-chain parts run from the residue outwards. The star is where a group is joined. C18 diacid = O=C(O)CCCCCCCCCCCCCCCCC(=O)*; γGlu = O=C(O)[C@H](CCC(=O)[*:2])N[*:1]; Isovaleryl = CC(C)CC(=O)*; Ahx = NCCCCCC(=O)O

T1: human NPY2 receptor (human, UniProt P49146 1-381)
T1 construct: whole, on cells; also called hNPY2-R; hNPY2R
T1 sequence (looked up): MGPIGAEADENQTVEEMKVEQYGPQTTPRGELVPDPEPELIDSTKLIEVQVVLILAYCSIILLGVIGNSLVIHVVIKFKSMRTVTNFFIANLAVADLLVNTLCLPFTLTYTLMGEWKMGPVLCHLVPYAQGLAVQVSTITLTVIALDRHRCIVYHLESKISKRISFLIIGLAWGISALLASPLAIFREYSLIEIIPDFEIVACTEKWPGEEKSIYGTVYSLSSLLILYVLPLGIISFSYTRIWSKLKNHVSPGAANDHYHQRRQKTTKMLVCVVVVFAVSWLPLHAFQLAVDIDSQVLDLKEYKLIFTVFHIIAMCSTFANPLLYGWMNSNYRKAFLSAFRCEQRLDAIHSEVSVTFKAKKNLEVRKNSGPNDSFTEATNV

B1: Compound 36 (peptide)
peptide: Isovaleryl-APAK([Ahx-γGlu-C18 diacid])PEEAATPEEIQRYYVSLRHYYNWLTRQRY-NH2
SMILES: CC[C@H](C)[C@H](NC(=O)[C@H](CCC(=O)O)NC(=O)[C@H](CCC(=O)O)NC(=O)[C@@H]1CCCN1C(=O)[C@@H](NC(=O)[C@H](C)NC(=O)[C@H](C)NC(=O)[C@H](CCC(=O)O)NC(=O)[C@H](CCC(=O)O)NC(=O)[C@@H]1CCCN1C(=O)[C@H](CCCCNC(=O)CCCCCNC(=O)CC[C@H](NC(=O)CCCCCCCCCCCCCCCCC(=O)O)C(=O)O)NC(=O)[C@H](C)NC(=O)[C@@H]1CCCN1C(=O)[C@H](C)NC(=O)CC(C)C)[C@@H](C)O)C(=O)N[C@@H](CCC(N)=O)C(=O)N[C@@H](CCCNC(=N)N)C(=O)N[C@@H](Cc1ccc(O)cc1)C(=O)N[C@@H](Cc1ccc(O)cc1)C(=O)N[C@H](C(=O)N[C@@H](CO)C(=O)N[C@@H](CC(C)C)C(=O)N[C@@H](CCCNC(=N)N)C(=O)N[C@@H](Cc1c[nH]cn1)C(=O)N[C@@H](Cc1ccc(O)cc1)C(=O)N[C@@H](Cc1ccc(O)cc1)C(=O)N[C@@H](CC(N)=O)C(=O)N[C@@H](Cc1c[nH]c2ccccc12)C(=O)N[C@@H](CC(C)C)C(=O)N[C@H](C(=O)N[C@@H](CCCNC(=N)N)C(=O)N[C@@H](CCC(N)=O)C(=O)N[C@@H](CCCNC(=N)N)C(=O)N[C@@H](Cc1ccc(O)cc1)C(N)=O)[C@@H](C)O)C(C)C
B2: Compound 38 (peptide)
peptide: Isovaleryl-APEK([Ahx-γGlu-C18 diacid])PEEDATPEELQEYYVSLRHYYNWLTRQRY-NH2
SMILES: CC(C)CC(=O)N[C@@H](C)C(=O)N1CCC[C@H]1C(=O)N[C@@H](CCC(=O)O)C(=O)N[C@@H](CCCCNC(=O)CCCCCNC(=O)CC[C@H](NC(=O)CCCCCCCCCCCCCCCCC(=O)O)C(=O)O)C(=O)N1CCC[C@H]1C(=O)N[C@@H](CCC(=O)O)C(=O)N[C@@H](CCC(=O)O)C(=O)N[C@@H](CC(=O)O)C(=O)N[C@@H](C)C(=O)N[C@H](C(=O)N1CCC[C@H]1C(=O)N[C@@H](CCC(=O)O)C(=O)N[C@@H](CCC(=O)O)C(=O)N[C@@H](CC(C)C)C(=O)N[C@@H](CCC(N)=O)C(=O)N[C@@H](CCC(=O)O)C(=O)N[C@@H](Cc1ccc(O)cc1)C(=O)N[C@@H](Cc1ccc(O)cc1)C(=O)N[C@H](C(=O)N[C@@H](CO)C(=O)N[C@@H](CC(C)C)C(=O)N[C@@H](CCCNC(=N)N)C(=O)N[C@@H](Cc1c[nH]cn1)C(=O)N[C@@H](Cc1ccc(O)cc1)C(=O)N[C@@H](Cc1ccc(O)cc1)C(=O)N[C@@H](CC(N)=O)C(=O)N[C@@H](Cc1c[nH]c2ccccc12)C(=O)N[C@@H](CC(C)C)C(=O)N[C@H](C(=O)N[C@@H](CCCNC(=N)N)C(=O)N[C@@H](CCC(N)=O)C(=O)N[C@@H](CCCNC(=N)N)C(=O)N[C@@H](Cc1ccc(O)cc1)C(N)=O)[C@@H](C)O)C(C)C)[C@@H](C)O
B3: Compound 43 (peptide)
peptide: Isovaleryl-APAK([Ahx-γGlu-C18 diacid])PEAAAEPEELQRYYVSLRHYYNWLTRQRY-NH2
SMILES: CC(C)CC(=O)N[C@@H](C)C(=O)N1CCC[C@H]1C(=O)N[C@@H](C)C(=O)N[C@@H](CCCCNC(=O)CCCCCNC(=O)CC[C@H](NC(=O)CCCCCCCCCCCCCCCCC(=O)O)C(=O)O)C(=O)N1CCC[C@H]1C(=O)N[C@@H](CCC(=O)O)C(=O)N[C@@H](C)C(=O)N[C@@H](C)C(=O)N[C@@H](C)C(=O)N[C@@H](CCC(=O)O)C(=O)N1CCC[C@H]1C(=O)N[C@@H](CCC(=O)O)C(=O)N[C@@H](CCC(=O)O)C(=O)N[C@@H](CC(C)C)C(=O)N[C@@H](CCC(N)=O)C(=O)N[C@@H](CCCNC(=N)N)C(=O)N[C@@H](Cc1ccc(O)cc1)C(=O)N[C@@H](Cc1ccc(O)cc1)C(=O)N[C@H](C(=O)N[C@@H](CO)C(=O)N[C@@H](CC(C)C)C(=O)N[C@@H](CCCNC(=N)N)C(=O)N[C@@H](Cc1c[nH]cn1)C(=O)N[C@@H](Cc1ccc(O)cc1)C(=O)N[C@@H](Cc1ccc(O)cc1)C(=O)N[C@@H](CC(N)=O)C(=O)N[C@@H](Cc1c[nH]c2ccccc12)C(=O)N[C@@H](CC(C)C)C(=O)N[C@H](C(=O)N[C@@H](CCCNC(=N)N)C(=O)N[C@@H](CCC(N)=O)C(=O)N[C@@H](CCCNC(=N)N)C(=O)N[C@@H](Cc1ccc(O)cc1)C(N)=O)[C@@H](C)O)C(C)C
B4: Compound 42 (peptide)
peptide: Isovaleryl-APEK([Ahx-γGlu-C18 diacid])PEEPATPEELQRYYVSLRHYYNWLTRQRY-NH2
SMILES: CC(C)CC(=O)N[C@@H](C)C(=O)N1CCC[C@H]1C(=O)N[C@@H](CCC(=O)O)C(=O)N[C@@H](CCCCNC(=O)CCCCCNC(=O)CC[C@H](NC(=O)CCCCCCCCCCCCCCCCC(=O)O)C(=O)O)C(=O)N1CCC[C@H]1C(=O)N[C@@H](CCC(=O)O)C(=O)N[C@@H](CCC(=O)O)C(=O)N1CCC[C@H]1C(=O)N[C@@H](C)C(=O)N[C@H](C(=O)N1CCC[C@H]1C(=O)N[C@@H](CCC(=O)O)C(=O)N[C@@H](CCC(=O)O)C(=O)N[C@@H](CC(C)C)C(=O)N[C@@H](CCC(N)=O)C(=O)N[C@@H](CCCNC(=N)N)C(=O)N[C@@H](Cc1ccc(O)cc1)C(=O)N[C@@H](Cc1ccc(O)cc1)C(=O)N[C@H](C(=O)N[C@@H](CO)C(=O)N[C@@H](CC(C)C)C(=O)N[C@@H](CCCNC(=N)N)C(=O)N[C@@H](Cc1c[nH]cn1)C(=O)N[C@@H](Cc1ccc(O)cc1)C(=O)N[C@@H](Cc1ccc(O)cc1)C(=O)N[C@@H](CC(N)=O)C(=O)N[C@@H](Cc1c[nH]c2ccccc12)C(=O)N[C@@H](CC(C)C)C(=O)N[C@H](C(=O)N[C@@H](CCCNC(=N)N)C(=O)N[C@@H](CCC(N)=O)C(=O)N[C@@H](CCCNC(=N)N)C(=O)N[C@@H](Cc1ccc(O)cc1)C(N)=O)[C@@H](C)O)C(C)C)[C@@H](C)O
B5: Compound 41 (peptide)
peptide: Isovaleryl-APEK([Ahx-γGlu-C18 diacid])PEEDAEPEELQRYYTSLRHYYQWLTRQRY-NH2
SMILES: CC(C)CC(=O)N[C@@H](C)C(=O)N1CCC[C@H]1C(=O)N[C@@H](CCC(=O)O)C(=O)N[C@@H](CCCCNC(=O)CCCCCNC(=O)CC[C@H](NC(=O)CCCCCCCCCCCCCCCCC(=O)O)C(=O)O)C(=O)N1CCC[C@H]1C(=O)N[C@@H](CCC(=O)O)C(=O)N[C@@H](CCC(=O)O)C(=O)N[C@@H](CC(=O)O)C(=O)N[C@@H](C)C(=O)N[C@@H](CCC(=O)O)C(=O)N1CCC[C@H]1C(=O)N[C@@H](CCC(=O)O)C(=O)N[C@@H](CCC(=O)O)C(=O)N[C@@H](CC(C)C)C(=O)N[C@@H](CCC(N)=O)C(=O)N[C@@H](CCCNC(=N)N)C(=O)N[C@@H](Cc1ccc(O)cc1)C(=O)N[C@@H](Cc1ccc(O)cc1)C(=O)N[C@H](C(=O)N[C@@H](CO)C(=O)N[C@@H](CC(C)C)C(=O)N[C@@H](CCCNC(=N)N)C(=O)N[C@@H](Cc1c[nH]cn1)C(=O)N[C@@H](Cc1ccc(O)cc1)C(=O)N[C@@H](Cc1ccc(O)cc1)C(=O)N[C@@H](CCC(N)=O)C(=O)N[C@@H](Cc1c[nH]c2ccccc12)C(=O)N[C@@H](CC(C)C)C(=O)N[C@H](C(=O)N[C@@H](CCCNC(=N)N)C(=O)N[C@@H](CCC(N)=O)C(=O)N[C@@H](CCCNC(=N)N)C(=O)N[C@@H](Cc1ccc(O)cc1)C(N)=O)[C@@H](C)O)[C@@H](C)O
B6: Compound 39 (peptide)
peptide: Isovaleryl-APEK([Ahx-γGlu-C18 diacid])PEEDASPEALQEYYVSLRHYYNWLTRQRY-NH2
SMILES: CC(C)CC(=O)N[C@@H](C)C(=O)N1CCC[C@H]1C(=O)N[C@@H](CCC(=O)O)C(=O)N[C@@H](CCCCNC(=O)CCCCCNC(=O)CC[C@H](NC(=O)CCCCCCCCCCCCCCCCC(=O)O)C(=O)O)C(=O)N1CCC[C@H]1C(=O)N[C@@H](CCC(=O)O)C(=O)N[C@@H](CCC(=O)O)C(=O)N[C@@H](CC(=O)O)C(=O)N[C@@H](C)C(=O)N[C@@H](CO)C(=O)N1CCC[C@H]1C(=O)N[C@@H](CCC(=O)O)C(=O)N[C@@H](C)C(=O)N[C@@H](CC(C)C)C(=O)N[C@@H](CCC(N)=O)C(=O)N[C@@H](CCC(=O)O)C(=O)N[C@@H](Cc1ccc(O)cc1)C(=O)N[C@@H](Cc1ccc(O)cc1)C(=O)N[C@H](C(=O)N[C@@H](CO)C(=O)N[C@@H](CC(C)C)C(=O)N[C@@H](CCCNC(=N)N)C(=O)N[C@@H](Cc1c[nH]cn1)C(=O)N[C@@H](Cc1ccc(O)cc1)C(=O)N[C@@H](Cc1ccc(O)cc1)C(=O)N[C@@H](CC(N)=O)C(=O)N[C@@H](Cc1c[nH]c2ccccc12)C(=O)N[C@@H](CC(C)C)C(=O)N[C@H](C(=O)N[C@@H](CCCNC(=N)N)C(=O)N[C@@H](CCC(N)=O)C(=O)N[C@@H](CCCNC(=N)N)C(=O)N[C@@H](Cc1ccc(O)cc1)C(N)=O)[C@@H](C)O)C(C)C

target: T1, human NPY2 receptor; assay: RLB: displacement of 125I-PYY(1-36) from hNPY2R membranes

Ki [nM]	Binder
1.25	B1
12.4	B2
2.49	B3
1.98	B4
19.8	B5
2.73	B6
